{"source": "patent US20060241020", "proteins": {"B1": {"name": "PTP-Sap1 wild type (GST fusion of the catalytic domain) (protein)", "chain": "LKRRNKKKQQKPELRDLVFSSPGDIPAEDFADHVRKNERDSNCGFADEYQQLSLVGHSQSQMVASASENNAKNRYRNVLPYDWSRVPLKPIHEEPGSDYINASFMPGLWSPQEFIATQGPLPQTVGDFWRLVWEQQSHTLVMLTNCMEAGRVKCEHYWPLDSQPCTHGHLRVTLVGEEVMENWTVRELLLLQVEEQKTLSVRQFHYQAWPDHGVPSSPDTLLAFWRMLRQWLDQTMEGGPPIVHCSAGVGRTGTLIALDVLLRQLQSEGLLGPFSFVRKMRESRPLMVQTEAQYVFLHQCILRFLQQSAQAPAEKEVPYEDVENLIYENVAAIQAHKLEV"}, "B2": {"name": "PTP-β wild type (GST fusion of the catalytic domain) (protein)", "chain": "RQKVSHGRERPSARLSIRRDRPLSVHLNLGQKGNRKTSCPIKINQFEGHFMKLQADSNYLLSKEYEELKDVGRNQSCDIALLPENRGKNRYNNILPYDATRVKLSNVDDDPCSDYINASYIPGNNFRREYIVTQGPLPGTKDDFWKMVWEQNVHNIVMVTQCVEKGRVKCDHYWPADQDSLYYGDLILQMLSESVLPEWTIREFKICGEEQLDAHRLIRHFHYTVWPDHGVPETTQSLIQFVRTVRDYINRSPGAGPTVVHCSAGVGRTGTFIALDRILQQLDSKDSVDIYGAVHDLRLHRVHMVQTECQYVYLHQCVRDVLRARKLRSEQENPLFPIYENVNPEYHRDPVYSRH"}}, "key": {"[1]": {"target": "T1, AEGELpYGSLYA (Sap1 example phosphopeptide)", "T1 chain": "AEGELYGSLYA"}, "[2]": {"target": "T2, EFpYGAFA (Sap1 example phosphopeptide, A form of EFpYGAFA/G)", "T2 chain": "EFYGAFA"}, "[3]": {"target": "T3, EFpYGAFG (Sap1 example phosphopeptide, G form of EFpYGAFA/G)", "T3 chain": "EFYGAFG"}, "[4]": {"target": "all the clones tested (PTP-Sap1 clones as GST-peptides in the dephosphorylation assay)"}, "[5]": {"target": "the GST-peptide (PTP-β clone as GST fusion in the dephosphorylation assay)"}}, "data": [{"protein": "B1", "values": [{"measurement": "Km", "setting": "[1]", "result": "Km=7.6 uM"}, {"measurement": "Km", "setting": "[2]", "result": "Km=7.0 uM"}, {"measurement": "Km", "setting": "[3]", "result": "Km=7.0 uM"}, {"measurement": "dephosphorylation assay on GST-PEP constructs", "setting": "[4]", "result": "Dephosphorylation assays showed a conserved enzymatic activity for all the clones tested (not shown)"}]}, {"protein": "B2", "values": [{"measurement": "dephosphorylation assay on GST-PEP constructs", "setting": "[5]", "result": "the dephosphorylation of the GST-peptide was weak (not shown) as compared to the same experiment on PTP-Sap1"}]}]}
